First the molecules themselves.
B1: "Peptide-N(4)-(N-acetyl-beta-glucosaminyl)asparagine amidase" (Mus musculus), Q9JI78 (parent)
chain: MASATLGSSSSSASPAVAELCQNTPETFLEASKLLLTYADNILRNPSDEKYRSIRIGNTAFSTRLLPVRGAVECLFEMGFEEGETHLIFPKKASVEQLQKIRDLIAIERSSRLDGSSKKVQFSQHPAAAKLPLEQSEDPAGLIRHSGNQTGQLPSLPSAPMVVGDSTILKVLQSNIQHVQLYENPVLQEKALTCIPVSELKRKAQEKLFRARKLDKGTNVSDEDFLLLELLHWFKEEFFRWVNNIVCSKCGGETRSRDEALLPNDDELKWGAKNVENHYCDACQLSNRFPRYNNPEKLLETRCGRCGEWANCFTLCCRALGFEARYVWDYTDHVWTEVYSPSQQRWLHCDACEDVCDKPLLYEIGWGKKLSYIIAFSKDEVVDVTWRYSCKHDEVMSRRTKVKEELLRETINGLNKQRQLSLSESRRKELLQRIIVELVEFISPKTPRPGELGGRVSGSLAWRVARGETGLERKEILFIPSENEKISKQFHLRYDIVRDRYIRVSDNNINISGWENGVWKMESIFRKVEKDWNMVYLARKEGSSFAYISWKFECGSAGLKVDTVSIRTSSQSFESGSVRWKLRSETAQVNLLGDKNLRSYNDFSGATEVTLEAELSRGDGDVAWQHTQLFRQSLNDSGENGLEIIITFNDL

In the first assay the parent is B1. The conditions noted are these: with tera_mouse Vcp.
As to N58D, the “effect of a mutation on the interaction” value is “disrupting interaction strength”.

The variants in the next assay derive from B1. The conditions noted are these: with tera_mouse Vcp. The source holds these as a separate data set.
Consider R55E, for which the “effect of a mutation on the interaction” value is on record as “disrupting interaction strength”.
